Experiments:
B16-OVA melanoma [1] = assay: B16-OVA melanoma, pre-tumor treatment (immunization on day of tumor inoculation); assay type: in vivo, mouse
Protocol: FIG. 4A through FIG. 4J illustrate inhibition of B16-OVA tumor growth by pre- or post-tumor treatment with Diprovocim-adjuvanted tumor vaccination and checkpoint blockade. FIG. 4A provides a schematic of pre- and post-tumor treatment protocols. C57BL/6J mice (n=8 mice per treatment) were injected s.c. with 2×10^5 B16-OVA melanoma cells on day 0. For pre-tumor treatment, mice were immunized i.m. with OVA (100 μg) mixed with vehicle or Diprovocim (10 mg/kg) or alum (2 mg/kg) on the same day prior to tumor injection. Mice received a booster immunization seven days later in which anti-PD-L1 (200 μg) was administered on days 3, 6 and 9 after tumor inoculation by i.p. injection. For post-tumor treatment, initial immunization was on day 3 after tumor inoculation, with a booster seven days later. Anti-PD-L1 (200 μg) was administered on days 3, 6, 9, 12, and 15 after tumor inoculation by i.p. injection. FIG. 4B through FIG. 4F illustrate pre-tumor treatment results. Tumor volume (FIG. 4B and FIG. 4D) and percent mouse survival (survivors/total mice) (FIG. 4C and FIG. 4E). […] FIG. 4G through FIG. 4J illustrate a comparison of pre-tumor (FIG. 4G and FIG. 4H) vs. post-tumor treatment (FIG. 4I and FIG. 4J). Tumor volume (FIG. 4G and FIG. 4I) and percent mouse survival (survivors/total mice) (FIG. 4H and FIG. 4J) are shown. P values for tumor volume analysis apply to the final time point as indicated in graphs and were calculated by Student's t test. P values for survival analysis were calculated by Kaplan-Meier analysis. All results are representative of two independent studies.
C57BL/6J mice (n=8) were injected s.c. with 2×10^5 B16-OVA melanoma cells on day 0. Anti-PD-L1 (200 μg) or mouse IgG2a isotype control antibody was administered on days 3, 6 and 9 after tumor inoculation by i.p. injection. FIG. 8A is a graph of tumor volume versus time and FIG. 8B is a graph showing percent mouse survival (survivors/total mice) versus time. The control values in both plots are shown above those for the anti-PD-L1 values where the two values diverge. […] Results are representative of two independent studies.
B16-OVA cells (B16F10 melanoma cells stably expressing chicken ovalbumin) were grown in DMEM containing 10% vol/vol FBS. A total of 2×10^5 B16-OVA cells in 100 μL PBS were injected s.c. into the right flank of 8-12 week old male C57BL/6J mice to establish tumors (n=8 mice per group). For pretreatment, 10 mg/kg Diprovocim-1 or 2 mg/kg alum with or without OVA (100 μg) was injected i.m. into mice on the same day as tumor inoculation (day 0). Mice received a booster shot seven days after the first immunization. On day 3, 6 and 9, some groups were injected i.p. with 200 μg checkpoint inhibitor (anti-mPD-L1, BioXcell) in 100 μl saline.
Tumors were measured with a digital caliper (Fisher) and the tumor sizes were calculated using the following formula: volume=0.5×length×width^2. Mice were sacrificed when the tumor length or width reached 2 cm.

[2] = tested on: OVA peptide-pulsed target cells; assay: In vivo CTL killing assay; parameters: species or system mouse; details: i.m. immunization, 100 μg OVA, Diprovocim 10 mg/kg; target cells i.v. day 7, read two days later
OT-I CD8 T cells = assay: Cross-priming of CD8 T cells (CD69 on OT-I CD8 T cells co-cultured with DCs of immunized mice); assay type: in vivo, mouse; details: DCs 24 hours after i.m. immunization, 24 hours co-culture
Protocol: C57BL/6J male mice were injected i.m. with 100 μg OVA mixed with vehicle or with 10 mg/kg Diprovocim (n=4 mice per treatment). 24 hours later, DCs from draining lymph nodes and spleen were purified by Mouse Pan Dendritic Cell Isolation Kit (Miltenyi Biotech). CD8 T cells from OT-I transgenic mice were purified by Mouse CD8+ T Cell Isolation Kit (Miltenyi Biotech). 3×10^5 DCs were co-cultured with 3×10^5 OT-I CD8 T cells in RPMI medium containing 10% vol/vol FBS and 1% vol/vol penicillin and streptomycin for 24 hours. Then, cells were collected and stained with anti-mouse CD3-FITC, anti-mouse CD8-BV510, and anti-mouse CD69-PE-CF594 (BioLegend) for 45 minutes. Then, the cells were washed twice with PBS. Stained cells were analyzed with an LSRII instrument and the flow cytometry data were analyzed using FlowJo software.

B16-OVA melanoma [3] = assay: B16-OVA melanoma, post-tumor treatment (immunization day 3 after tumor inoculation); assay type: in vivo, mouse; details: immunization three days after tumor inoculation, plus anti-PD-L1
Protocol: C57BL/6J mice (n=8 mice per treatment) were injected s.c. with 2×10^5 B16-OVA melanoma cells on day 0. For pre-tumor treatment, mice were immunized i.m. with OVA (100 μg) mixed with vehicle or Diprovocim (10 mg/kg) or alum (2 mg/kg) on the same day prior to tumor injection. Mice received a booster immunization seven days later in which anti-PD-L1 (200 μg) was administered on days 3, 6 and 9 after tumor inoculation by i.p. injection. For post-tumor treatment, initial immunization was on day 3 after tumor inoculation, with a booster seven days later. Anti-PD-L1 (200 μg) was administered on days 3, 6, 9, 12, and 15 after tumor inoculation by i.p. injection. […] P values for tumor volume analysis apply to the final time point as indicated in graphs and were calculated by Student's t test. P values for survival analysis were calculated by Kaplan-Meier analysis. All results are representative of two independent studies.
For post-treatment, 10 mg/kg Diprovocim-1 or 2 mg/kg Alum with OVA (100 μg) was injected i.m. into mice on day 3 after tumor inoculation. Mice received a booster shot seven days after the first immunization. On day 3, 6, 9, 12 and 15 after tumor inoculation, mice were also injected i.p. with 200 μg anti-mPD-L1 in 100 μl saline.
Tumors were measured with a digital caliper (Fisher) and the tumor sizes were calculated using the following formula: volume=0.5×length×width^2. […]

[4] = immunization on day of tumor inoculation, plus anti-PD-L1

B1: OVA: EndoFit ovalbumin, Invivogen; immunogen, given mixed with vehicle when without adjuvant (protein, UniProt P01012 2-386, looked up)
Ovalbumin: GSIGAASMEFCFDVFKELKVHHANENIFYCPIAIMSALAMVYLGAKDSTRTQINKVVRFDKLPGFGDSIEAQCGTSVNVHSSLRDILNQITKPNDVYSFSLASRLYAEERYPILPEYLQCVKELYRGGLEPINFQTAADQARELINSWVESQTNGIIRNVLQPSSVDSQTAMVLVNAIVFKGLWEKAFKDEDTQAMPFRVTEQESKPVQMMYQIGLFRVASMASEKMKILELPFASGTMSMLVLLPDEVSGLEQLESIINFEKLTEWTSSNVMEERKIKVYLPRMKMEEKYNLTSVLMAMGITDVFSSSANLSGISSAESLKISQAVHAAHAEINEAGREVVGSAEAGVDAASVSEEFRADHPFLFCIKHIATNAVLFFGRCVSP
B16-OVA melanoma [1]; [4]
  average survival time: 24 days
  mice died by 38 days after tumor inoculation: 100%
B16-OVA melanoma [1]; single agent, no anti-PD-L1, i.m. day 0 and booster day 7
  tumor growth rates and survival times compared with vehicle alone: similar
[2]
  target cells eliminated: about 10%
OT-I CD8 T cells
  activation (CD69 upregulation) of OT-I CD8 T cells by DCs of immunized mice: failed to induce CD69 expression
B16-OVA melanoma [3]
  average survival time: 22 days

Reference: patent publication US20210315992A1, “ADJUVANT EFFECT OF THE TLR1/2 AGONIST DIPROVOCIM SYNERGIZES WITH CHECKPOINT-INHIBITING ANTIBODIES TO ELIMINATE DISEASE” (The Board of Regents of the University of Texas System, priority 2018, published 2021)
